This passage reports IC50 results from US6835824.

The target of the test is nine-person peanut-specific IgE antibody pool (pooled serum of patients with AD and positive peanut challenge). The experiment in a line: IgE ELISA inhibition, crude peanut coated, pooled serum. In general terms: In an ELISA, binding on a coated surface is turned into a signal by an enzyme label.

B1: Ara h I, 63.5 kD peanut allergen, native, purified from Florunner peanut extract (protein, Arachis hypogaea, UniProt P43238 85-626, looked up)
chain: RSPPGERTRGRQPGDYDDDRRQPRREEGGRWGPAGPREREREEDWRQPREDWRRPSHQQPRKIRPEGREGEQEWGTPGSHVREETSRNNPFYFPSRRFSTRYGNQNGRIRVLQRFDQRSRQFQNLQNHRIVQIEAKPNTLVLPKHADADNILVIQQGQATVTVANGNNRKSFNLDEGHALRIPSGFISYILNRHDNQNLRVAKISMPVNTPGQFEDFFPASSRDQSSYLQGFSRNTLEAAFNAEFNEIRRVLLEENAGGEQEERGQRRWSTRSSENNEGVIVKVSKEHVEELTKHAKSVSKKGSEEEGDITNPINLREGEPDLSNNFGKLFEVKPDKKNPQLQDLDMMLTCVEIKEGALMLPHFNSKAMVIVVVNKGTGNLELVAVRKEQQQRGRREEEEDEDEEEEGSNREVRRYTARLKEGDVFIMPAAHPVAINASSELHLLGFGINAENNHRIFLAGDKDNVIDQIEKQAKDLAFPGSGEQVEKLIKNQKESHFVSARPQSQSQSPSSPEKESPEKEDQEEENQGGKGPLLSILKAFN
modifications: glycoprotein
As usually defined, the IC50 is the midpoint of a concentration-inhibition curve. On to B1, for which the 50% inhibitory concentration (IC50) was found to be 5.5 ng/mL.
